Laboratory results from article PMC11982978 (2025).
Square brackets hold non-standard residues; d marks the D form. Ends that are not written are not given here.

Biological target: Active phosphorylated His6-tagged ERK2 WT (rat (p-0033 says mouse), UniProt P63086 3-358, phosphorylated (active form; sites not given))

IC50: 92 µM
B1: FAAP100 D-peptide (peptide)
chain: [dL][dC][dA][dR][dR]G[dL][dY][dC][dL][dS][dL][dD][dH]
modifications: cysteine pairing not given here
